T1: human FcγRIIA (R131, Sino Biological Cat. No. 10374-H08H) (human, UniProt P12318 34-218)
T1 construct: bought; also called human FcγRIIa R131 allele; FcγRII allele R131
T1 sequence (looked up): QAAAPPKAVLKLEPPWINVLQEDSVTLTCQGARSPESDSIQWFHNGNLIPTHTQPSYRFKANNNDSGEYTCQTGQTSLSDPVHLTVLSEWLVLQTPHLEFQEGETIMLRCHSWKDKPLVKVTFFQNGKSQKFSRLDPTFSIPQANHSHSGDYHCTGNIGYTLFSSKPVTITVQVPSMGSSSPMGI


Key:
[1] = molecular target: T2, Human C1q (Sigma Cat. No. 20476), HRP-labelled (human, UniProt P02745 23-245; P02746 28-253; P02747 29-245); assay: ELISA, antibody coated, HRP-C1q; Expt 1, buffer alone 0.053
T2 construct: Coupled to horse-radish peroxidase with Lightning-Link kit; also called HRP-labelled C1q

[2] = molecular target: T2, Human C1q (Sigma Cat. No. 20476), …; assay: ELISA, antibody coated, HRP-C1q; Expt 2, buffer alone 0.051
[3] = molecular target: T3, Histidine-tagged recombinant human FcγRI (CD64) (human, UniProt P12314 16-288); assay: SPR, captured His-receptor
T3 construct: bought; also called Sino Biological Cat. No. 12056-H08H

[4] = molecular target: T1, human FcγRIIA (R131, Sino Biological …); assay: SPR, captured His-receptor
[5] = molecular target: T4, human FcγRIIIB (NA2 allotype, Sino Biological Cat. No. 11046-H08H) (human, UniProt O75015 17-200); assay: SPR, captured His-receptor
T4 construct: bought; also called human FcγRIIIb NA2 allele

[6] = molecular target: T3, Histidine-tagged recombinant human …; assay: SPR, culture supernatant, captured His-FcγRI;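 further: biacore T200 SPR at 25 °C, anti-His capture, supernatants of HEK293 cells expressing IgG1 Fc variants injected 1 min, reference-subtracted response read 55 s after injection start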

| Mean Absorbance [1] | Mean Absorbance [2] | binding result [3] | binding result [4] | binding result [5] | Mean binding response [6] [RU] | Binder |
| --- | --- | --- | --- | --- | --- | --- |
| 0.769 absorbance (450 nm) | 0.432 absorbance (450 nm) |  |  |  |  | anti-CD3 (muromonab) human IgG1 wild-type reference (antibody, also called 3-1; copies: 2 + 2) heavy: not shown light: QIVLTQSPAIMSASPGEKVTMTCSASSSVSYMNWYQQKSGTSPKRWIYDTSKLASGVPAHFRGSGSGTSYSLTISGMEAEDAATYYCQQWSSNPFTFGSGTKLEIKRTVAAPSVFIFPPSDEQLKSGTASVVCLLNNFYPREAKVQWKVDNALQSGNSQESVTEQDSKDSTYSLSSTLTLSKADYEKHKVYACEVTHQGLSSPVTKSFNRGEC |
| 0.053 absorbance (450 nm) | 0.051 absorbance (450 nm) |  |  |  |  | anti-CD3 (muromonab) human IgG1 L234A/L235A (LALA) (antibody, EU numbering; also called 3-65; copies: 2 + 2) heavy: not shown light: QIVLTQSPAIMSASPGEKVTMTCSASSSVSYMNWYQQKSGTSPKRWIYDTSKLASGVPAHFRGSGSGTSYSLTISGMEAEDAATYYCQQWSSNPFTFGSGTKLEIKRTVAAPSVFIFPPSDEQLKSGTASVVCLLNNFYPREAKVQWKVDNALQSGNSQESVTEQDSKDSTYSLSSTLTLSKADYEKHKVYACEVTHQGLSSPVTKSFNRGEC |
| 0.052 absorbance (450 nm) | 0.044 absorbance (450 nm) |  |  |  |  | anti-CD3 (muromonab) human IgG1 L234A/L235A/P329G (LALAPG reference) (antibody, EU numbering; also called 3-66; copies: 2 + 2) heavy: not shown light: QIVLTQSPAIMSASPGEKVTMTCSASSSVSYMNWYQQKSGTSPKRWIYDTSKLASGVPAHFRGSGSGTSYSLTISGMEAEDAATYYCQQWSSNPFTFGSGTKLEIKRTVAAPSVFIFPPSDEQLKSGTASVVCLLNNFYPREAKVQWKVDNALQSGNSQESVTEQDSKDSTYSLSSTLTLSKADYEKHKVYACEVTHQGLSSPVTKSFNRGEC |
| 0.052 absorbance (450 nm) | 0.049 absorbance (450 nm) |  |  |  |  | anti-CD3 (muromonab) human IgG1 L234G/L235S/G236R (antibody, EU numbering; also called 3-19; copies: 2 + 2) heavy: not shown light: QIVLTQSPAIMSASPGEKVTMTCSASSSVSYMNWYQQKSGTSPKRWIYDTSKLASGVPAHFRGSGSGTSYSLTISGMEAEDAATYYCQQWSSNPFTFGSGTKLEIKRTVAAPSVFIFPPSDEQLKSGTASVVCLLNNFYPREAKVQWKVDNALQSGNSQESVTEQDSKDSTYSLSSTLTLSKADYEKHKVYACEVTHQGLSSPVTKSFNRGEC |
| 0.048 absorbance (450 nm) | 0.046 absorbance (450 nm) |  |  |  |  | anti-CD3 (muromonab) human IgG1 L234S/L235T/G236R (antibody, EU numbering; also called 3-52; copies: 2 + 2) heavy: not shown light: QIVLTQSPAIMSASPGEKVTMTCSASSSVSYMNWYQQKSGTSPKRWIYDTSKLASGVPAHFRGSGSGTSYSLTISGMEAEDAATYYCQQWSSNPFTFGSGTKLEIKRTVAAPSVFIFPPSDEQLKSGTASVVCLLNNFYPREAKVQWKVDNALQSGNSQESVTEQDSKDSTYSLSSTLTLSKADYEKHKVYACEVTHQGLSSPVTKSFNRGEC |
| 0.047 absorbance (450 nm) | 0.042 absorbance (450 nm) |  |  |  |  | anti-CD3 (muromonab) human IgG1 L234S/L235V/G236R (antibody, EU numbering; also called 3-53; copies: 2 + 2) heavy: not shown light: QIVLTQSPAIMSASPGEKVTMTCSASSSVSYMNWYQQKSGTSPKRWIYDTSKLASGVPAHFRGSGSGTSYSLTISGMEAEDAATYYCQQWSSNPFTFGSGTKLEIKRTVAAPSVFIFPPSDEQLKSGTASVVCLLNNFYPREAKVQWKVDNALQSGNSQESVTEQDSKDSTYSLSSTLTLSKADYEKHKVYACEVTHQGLSSPVTKSFNRGEC |
| 0.047 absorbance (450 nm) | 0.045 absorbance (450 nm) |  |  |  |  | anti-CD3 (muromonab) human IgG1 L234T/L235Q/G236R (antibody, EU numbering; also called 3-60; copies: 2 + 2) heavy: not shown light: QIVLTQSPAIMSASPGEKVTMTCSASSSVSYMNWYQQKSGTSPKRWIYDTSKLASGVPAHFRGSGSGTSYSLTISGMEAEDAATYYCQQWSSNPFTFGSGTKLEIKRTVAAPSVFIFPPSDEQLKSGTASVVCLLNNFYPREAKVQWKVDNALQSGNSQESVTEQDSKDSTYSLSSTLTLSKADYEKHKVYACEVTHQGLSSPVTKSFNRGEC |
| 0.047 absorbance (450 nm) | 0.048 absorbance (450 nm) |  |  |  |  | anti-CD3 (muromonab) human IgG1 L234T/L235T/G236R (antibody, EU numbering; also called 3-63; copies: 2 + 2) heavy: not shown light: QIVLTQSPAIMSASPGEKVTMTCSASSSVSYMNWYQQKSGTSPKRWIYDTSKLASGVPAHFRGSGSGTSYSLTISGMEAEDAATYYCQQWSSNPFTFGSGTKLEIKRTVAAPSVFIFPPSDEQLKSGTASVVCLLNNFYPREAKVQWKVDNALQSGNSQESVTEQDSKDSTYSLSSTLTLSKADYEKHKVYACEVTHQGLSSPVTKSFNRGEC |
| 0.052 absorbance (450 nm) | 0.051 absorbance (450 nm) |  |  |  |  | anti-CD3 (muromonab) human IgG1 N297Q (aglycosyl) (antibody, EU numbering; also called 3-67; copies: 2 + 2) heavy: not shown light: QIVLTQSPAIMSASPGEKVTMTCSASSSVSYMNWYQQKSGTSPKRWIYDTSKLASGVPAHFRGSGSGTSYSLTISGMEAEDAATYYCQQWSSNPFTFGSGTKLEIKRTVAAPSVFIFPPSDEQLKSGTASVVCLLNNFYPREAKVQWKVDNALQSGNSQESVTEQDSKDSTYSLSSTLTLSKADYEKHKVYACEVTHQGLSSPVTKSFNRGEC |
| 1.42 absorbance (450 nm) | 0.649 absorbance (450 nm) |  |  |  |  | anti-CD52 (alemtuzumab) human IgG1 wild-type reference (antibody, also called 4-1; copies: 2 + 2) heavy: not shown light: not shown |
| 0.053 absorbance (450 nm) | 0.056 absorbance (450 nm) |  |  |  |  | anti-CD52 (alemtuzumab) human IgG1 L234G/L235S/G236R (antibody, EU numbering; also called 4-19; copies: 2 + 2) heavy: QVQLQESGPGLVRPSQTLSLTCTVSGFTFTDFYMNWVRQPPGRGLEWIGFIRDKAKGYTTEYNPSVKGRVTMLVDTSKNQFSLRLSSVTAADTAVYYCAREGHTAAPFDYWGQGSLVTVSSASTKGPSVFPLAPSSKSTSGGTAALGCLVKDYFPEPVTVSWNSGALTSGVHTFPAVLQSSGLYSLSSVVTVPSSSLGTQTYICNVNHKPSNTKVDKKVEPKSCDKTHTCPPCPAPEGSRGPSVFLFPPKPKDTLMISRTPEVTCVVVDVSHEDPEVKFNWYVDGVEVHNAKTKPREEQYNSTYRVVSVLTVLHQDWLNGKEYKCKVSNKALPAPIEKTISKAKGQPREPQVYTLPPSRDELTKNQVSLTCLVKGFYPSDIAVEWESNGQPENNYKTTPPVLDSDGSFFLYSKLTVDKSRWQQGNVFSCSVMHEALHNHYTQKSLSLSPGK light: not shown |
| 0.052 absorbance (450 nm) | 0.053 absorbance (450 nm) |  |  |  |  | anti-CD52 (alemtuzumab) human IgG1 L234S/L235T/G236R (antibody, EU numbering; also called 4-52; copies: 2 + 2) heavy: QVQLQESGPGLVRPSQTLSLTCTVSGFTFTDFYMNWVRQPPGRGLEWIGFIRDKAKGYTTEYNPSVKGRVTMLVDTSKNQFSLRLSSVTAADTAVYYCAREGHTAAPFDYWGQGSLVTVSSASTKGPSVFPLAPSSKSTSGGTAALGCLVKDYFPEPVTVSWNSGALTSGVHTFPAVLQSSGLYSLSSVVTVPSSSLGTQTYICNVNHKPSNTKVDKKVEPKSCDKTHTCPPCPAPESTRGPSVFLFPPKPKDTLMISRTPEVTCVVVDVSHEDPEVKFNWYVDGVEVHNAKTKPREEQYNSTYRVVSVLTVLHQDWLNGKEYKCKVSNKALPAPIEKTISKAKGQPREPQVYTLPPSRDELTKNQVSLTCLVKGFYPSDIAVEWESNGQPENNYKTTPPVLDSDGSFFLYSKLTVDKSRWQQGNVFSCSVMHEALHNHYTQKSLSLSPGK light: not shown |
| 0.057 absorbance (450 nm) | 0.059 absorbance (450 nm) |  |  |  |  | anti-CD52 (alemtuzumab) human IgG1 L234S/L235V/G236R (antibody, EU numbering; also called 4-53; copies: 2 + 2) heavy: QVQLQESGPGLVRPSQTLSLTCTVSGFTFTDFYMNWVRQPPGRGLEWIGFIRDKAKGYTTEYNPSVKGRVTMLVDTSKNQFSLRLSSVTAADTAVYYCAREGHTAAPFDYWGQGSLVTVSSASTKGPSVFPLAPSSKSTSGGTAALGCLVKDYFPEPVTVSWNSGALTSGVHTFPAVLQSSGLYSLSSVVTVPSSSLGTQTYICNVNHKPSNTKVDKKVEPKSCDKTHTCPPCPAPESVRGPSVFLFPPKPKDTLMISRTPEVTCVVVDVSHEDPEVKFNWYVDGVEVHNAKTKPREEQYNSTYRVVSVLTVLHQDWLNGKEYKCKVSNKALPAPIEKTISKAKGQPREPQVYTLPPSRDELTKNQVSLTCLVKGFYPSDIAVEWESNGQPENNYKTTPPVLDSDGSFFLYSKLTVDKSRWQQGNVFSCSVMHEALHNHYTQKSLSLSPGK light: not shown |
| 0.056 absorbance (450 nm) | 0.052 absorbance (450 nm) |  |  |  |  | anti-CD52 (alemtuzumab) human IgG1 L234T/L235Q/G236R (antibody, EU numbering; also called 4-60; copies: 2 + 2) heavy: QVQLQESGPGLVRPSQTLSLTCTVSGFTFTDFYMNWVRQPPGRGLEWIGFIRDKAKGYTTEYNPSVKGRVTMLVDTSKNQFSLRLSSVTAADTAVYYCAREGHTAAPFDYWGQGSLVTVSSASTKGPSVFPLAPSSKSTSGGTAALGCLVKDYFPEPVTVSWNSGALTSGVHTFPAVLQSSGLYSLSSVVTVPSSSLGTQTYICNVNHKPSNTKVDKKVEPKSCDKTHTCPPCPAPETQRGPSVFLFPPKPKDTLMISRTPEVTCVVVDVSHEDPEVKFNWYVDGVEVHNAKTKPREEQYNSTYRVVSVLTVLHQDWLNGKEYKCKVSNKALPAPIEKTISKAKGQPREPQVYTLPPSRDELTKNQVSLTCLVKGFYPSDIAVEWESNGQPENNYKTTPPVLDSDGSFFLYSKLTVDKSRWQQGNVFSCSVMHEALHNHYTQKSLSLSPGK light: not shown |
|  |  | no binding (tested: 100 µg/mL) | no binding (tested: 100 µg/mL) | no binding (tested: 100 µg/mL) | 17 | anti-CD20 human IgG1 L234T/L235Q/G236R (antibody, also called 2-60; copies: 2 + 2) heavy: QVQLQQPGAELVKPGASVKMSCKASGYTFTSYNMHWVKQTPGRGLEWIGAIYPGNGDTSYNQKFKGKATLTADKSSSTAYMQLSSLTSEDSAVYYCARSTYYGGDWYFNVWGAGTTVTVSSASTKGPSVFPLAPSSKSTSGGTAALGCLVKDYFPEPVTVSWNSGALTSGVHTFPAVLQSSGLYSLSSVVTVPSSSLGTQTYICNVNHKPSNTKVDKKVEPKSCDKTHTCPPCPAPETQRGPSVFLFPPKPKDTLMISRTPEVTCVVVDVSHEDPEVKFNWYVDGVEVHNAKTKPREEQYNSTYRVVSVLTVLHQDWLNGKEYKCKVSNKALPAPIEKTISKAKGQPREPQVYTLPPSRDELTKNQVSLTCLVKGFYPSDIAVEWESNGQPENNYKTTPPVLDSDGSFFLYSKLTVDKSRWQQGNVFSCSVMHEALHNHYTQKSLSLSPGK light: QIVLSQSPAILSASPGEKVTMTCRASSSVSYIHWFQQKPGSSPKPWIYATSNLASGVPVRFSGSGSGTSYSLTISRVEAEDAATYYCQQWTSNPPTFGGGTKLEIKRTVAAPSVFIFPPSDEQLKSGTASVVCLLNNFYPREAKVQWKVDNALQSGNSQESVTEQDSKDSTYSLSSTLTLSKADYEKHKVYACEVTHQGLSSPVTKSFNRGEC |

Reference: patent US20230235013A1 (MABSOLVE, published 2023)
